According to US20080233097A1, “Phosphorylation Site Of Mitogen-Activated Protein Kinases, Modified Proteins And Applications” (UNIVERSIDAD AUTONOMA DE MADRID, priority 2005, published 2008):
Values joined by “and” are separate entries in the source; they are usually repeats but may differ in a detail not shown here. Identical values can stand only once.

Legend:
p38 (GST-p38) = biological target: T1, p38 (GST-p38) (Mus musculus, UniProt P47811); assay: p38 phosphorylation by GRK2 in vitro (kinetic characterization); type: biochemical
T1 construct: with whole p38α in the same conditions as described in section A; made in house; host or cells: E. coli (GST-p38); Sf9 cells with baculovirus (GRK2)
T1 sequence (P47811 whole entry): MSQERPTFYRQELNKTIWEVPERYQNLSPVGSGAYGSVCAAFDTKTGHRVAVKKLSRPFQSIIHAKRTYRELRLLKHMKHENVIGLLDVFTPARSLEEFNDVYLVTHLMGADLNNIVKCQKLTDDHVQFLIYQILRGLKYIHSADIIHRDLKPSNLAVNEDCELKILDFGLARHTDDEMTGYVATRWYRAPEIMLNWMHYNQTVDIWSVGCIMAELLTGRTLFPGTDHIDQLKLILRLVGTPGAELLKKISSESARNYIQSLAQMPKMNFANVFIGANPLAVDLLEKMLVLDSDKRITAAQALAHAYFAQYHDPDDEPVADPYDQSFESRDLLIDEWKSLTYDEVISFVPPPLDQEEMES
Experimental: Normally, the phosphorylation reactions are left to take place for 30 minutes at 30° C. In the case of two-dimensional electrophoresis or of the samples intended for proteomic sequencing, the reaction extends to 1 or 2 hours.
The Michaelis-Menten behaviour of the kinases was assumed for calculating the kinetic constants of the enzymatic reactions. The graphs were made with the “Kaleidagraph” program, provided with an algorithm capable of deducing the kinetic parameters: Michaelis-Menten constant (Km) and maximum speed (Smax=So (nmol of PO4^3-incorporated. mg of enzyme^−1minute^−1)

Flag-p38α = biological target: T2, Flag-p38α (Mus musculus, UniProt P47811); assay: […] peptide phosphorylation by immunoprecipitated Flag-p38; type: biochemical; conditions: HEK 293 cells transfected with Flag-p38α, MKK6CAM and 1 or 2 μg pCDNA3-GRK2
T2 construct: expressed in transfected cells; host or cells: HEK 293 cells, co-transfected with pCDNA3-MKK6CAM and with or without pCDNA3-GRK2
T2 sequence (P47811 whole entry): as above

3T3-L1 cells = assay: adipocyte differentiation of 3T3-L1 (Oil Red staining, adipocyte count); type: cell-based; conditions: 3T3L1 lines stably transfected, day 15
From the text: 3T3L1 lines stably transfected with pCDNA3-GRK2 and pCDNA3-GRK2K220R were made. GRK2 (anti-GRK2) expression controls obtained in cell lines, compared to 3T3L1 levels, are included. The cells were subjected to a standard differentiation treatment and on day 15 of the latter, the cells were fixed with formalin and stained with Oil Red, a lipophilic coloring which binds to the fats accumulated by the adipocytes. The cells with adipocytic phenotype (in red) were counted under microscope in a total of 25 fields. Representative photographs of two independent experiments are shown in duplicate. A photo of the 3T3L1 cells, free of stimulation with insulin during the differentiation process (control), is also included. The graph reflects the adipocyte count (±SEM) in these experiments.
The cell culture was carried out with 10% DMEM medium of NCS serum. However, the entire differentiation process which is described below must be performed in depleted AXC serum (ion exchange resin) by means of successive adsorptions of fetal calf serum on an anion exchange resin and on active carbon. AXC serum was provided by the kitchen service of the Instituto of Investigaciones Biomédicas (Biomedical Research Institute). The cells are grown until their confluence and are plated (5×10^5 in P-100) in DMEM-10% AXC medium, supplemented with 4 μM of biotin (Sigma). The following day, the medium is replaced with fresh medium. The cells are grown another three days, until confluence is reached again, that day is called day “0”. On day 0 of differentiation, the cells are cultured in a medium containing: 0.5 μM dexamethasone (Sigma), 0.5 mM 3-isobutyl-1-methylxanthine (IMBX, of Sigma) and 1 μM insulin (Sigma) and in which they will remain for another three days. […] From day 6 to day 15, the adipogenesis was analyzed by staining with Oil Red, a red coloring of lipophilic constitution which binds to the drops of fat accumulated by the adipocytes in their cytoplasm. […] The cells are counted in a total of 25 fields per each experimental plate.

Flag-p38 = assay: GRK2 overexpression: p38 activation by MKK6CAM in HEK 293 cells; type: cell-based, human; conditions: increasing doses of pCDNA3-GRK2 (0 to 1 μg)
Experimental: FIG. 3A: HEK 293 cells, normally seeded in multiwell plates with 6 or 12 wells (M6 or M12), were transiently transfected with pCDNA3-Flag-p38α, pCDNA3-MKK6CAM, and with increasing amounts of the pCDNA3-GRK2 vector. In this experiment, M6 plates were used and the DNA amounts introduced were: 100 ng of Flag-p38, 100 ng of MKK6CAM, and 0 to 1 μg of GRK2. In all points, the total amount of DNA was completed with pCEFL-EGFP and with empty pCDNA3 instead of pCDNA3-MKK6CAM, in the case of the control (CTRL). After 48 hours, the cells were harvested by lysing them in M2 buffer. […] The p38 activation state was evaluated with anti-phospho-p38, of Cell Signaling, and after giving off the antibodies of the first immunodetection, it was detected with total anti-p38, of the same company. […] The Flag-p38 activation state was determined in the same way as in A. Furthermore, the correct MKK6CAM expression was assured with the anti-MKK6/SKK3 antibody of Upstate Biotechnology. […]
The HE 293 cells, generally subjected to starvation (medium without serum) of a variable duration: 2 hours in the case of p38 and all night in the case of ERK, were stimulated and, after processing the lysate cells, the immunodetection of the phosphoproteins was carried out with the phospho-specific antibodies of the activation segments of both proteins. […] The quantification of the bands was carried out in a laser densitometer. […]

sinucleins = conditions: depending on the subtypes; cited from earlier work
β-tubulins = conditions: depending on the subtypes; cited from earlier work
[1] = tested on: phosducin and the protein similar to phosducin (PhD and PhLP); conditions: cited from earlier work
p38 = biological target: T3, p38 (Mus musculus, UniProt P47811); assay: effect of heparin on catalytic activity of p38; type: biochemical
T3 construct: with whole p38α in the same conditions as described in section A; made in house; host or cells: E. coli
T3 sequence (P47811 whole entry): as above
From the text: Subsequently, the inventors decided to study the possible interactions between GRK2 and p38. The first experimental approach was the phosphorylation assays of both proteins. […] These experiments were completed with negative controls of GST phosphorylation by GRK2 and by inspecting the binding area between the GST portion and the ORF of p38.

[2] = biological target: T4, GST-280-360p38 (last 80 amino acids of p38α fused to GST, from pDEST15)
T4 chain: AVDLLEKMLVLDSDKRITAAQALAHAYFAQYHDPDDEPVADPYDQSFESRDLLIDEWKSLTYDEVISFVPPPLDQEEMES

[3] = biological target: T5, GST-p38 (wild type p38α fused to GST, from pGEX2T-p38α)
T5 chain: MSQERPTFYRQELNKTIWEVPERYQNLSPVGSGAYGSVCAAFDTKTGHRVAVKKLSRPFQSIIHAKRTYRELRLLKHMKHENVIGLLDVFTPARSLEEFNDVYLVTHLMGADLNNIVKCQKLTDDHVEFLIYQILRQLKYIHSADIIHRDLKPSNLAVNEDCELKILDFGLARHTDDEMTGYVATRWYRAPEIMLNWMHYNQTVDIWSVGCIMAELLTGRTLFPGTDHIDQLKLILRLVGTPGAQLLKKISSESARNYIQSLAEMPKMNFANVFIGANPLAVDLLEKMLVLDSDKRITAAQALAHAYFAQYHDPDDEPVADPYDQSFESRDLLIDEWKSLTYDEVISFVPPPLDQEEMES

## GRK2: G protein-coupled receptor kinase 2; recombinant, purified by the Baculovirus system; phosphorylates Thr123 of p38
p38 (GST-p38); GRK2 25 nM, p38 12.5 to 400 nM, 15 minutes
  maximum speed (Smax): 0.9 nmol of PO4^3-incorporated per mg GRK2^−1 minute^−1
p38 (GST-p38); GRK2 25 nM, p38 12.5 to 400 nM, 15 minutes, 30° C., read-out: Michaelis-Menten constant (Km)
  Km: 0.0796 µM and 0.08 µM
p38 (GST-p38); at least three quantifications by Cerenkov
  stoichiometry of phosphorylation: 0.4-0.8 mol Pi/mol p38
p38 (GST-p38); time course 0 to 90 minutes
  average time for reaching 50% of the maximum phosphorylation: 15 min
Flag-p38α
  catalytic activity of immunoprecipitated p38 on APR peptide: dimmed
3T3-L1 cells
  acquisition of the adipocytic morphology mediated by insulin: inhibits the acquisition of the adipocytic morphology mediated by insulin
Flag-p38
  p38 activation dependent on MKK6CAM: decreased more as more amounts of GRK2 were expressed
sinucleins
  Km: 1 to 2 µM
β-tubulins
  Km: 1 to 2 µM
[1]
  Km: 0.04 to 0.1 µM

## heparin
p38
  effect on catalytic activity of p38: does not affect the catalytic activity of p38

B1: Recombinant GRK2 purified by the Baculovirus system (from infected Sf9 cells) (protein)
chain: MADLEAVLADVSYLMAMEKSKATPAARASKKILLPEPSIRSVMQKYLEDRGEVTFEKIFSQKLGYLLFRDFCLKHLEEAKPLVEFYEEIKKYEKLETEEERLVCSREIFDTYIMKELLACSHPFSKSAIEHVQGHLVKKQVPPDLFQPYIEEICQNLRGDVFQKFIESDKFTRFCQWKNVELNIHLTMNDFSVHRIIGRGGFGEVYGCRKADTGKMYAMKCLDKKRIKMKQGETLALNERIMLSLVSTGDCPFIVCMSYAFHTPDKLSFILDLMNGGDLHYHLSQHGVFSEADMRFYAAEIILGLEHMHNRFVVYRDLKPANILLDEHGHVRISDLGLACDFSKKKPHASVGTHGYMAPEVLQKGVAYDSSADWFSLGCMLFKLLRGHSPFRQHKTKDKHEIDRMTLTMAVELPDSFSPELRSLLEGLLQRDVNRRLGCLGRGAQEVKESPFFRSLDWQMVFLQKYPPPLIPPRGEVNAADAFDIGSFDEEDTKGIKLLDSDQELYRNFPLTISERWQQEVAETVFDTINAETDRLEARKKTKNKQLGHEEDYALGKDCIMHGYMSKMGNPFLTQWQRRYFYLFPNRLEWRGEGEAPQSLLTMEEIQSVEETQIKERKCLLLKIRGGKQFVLQCDSDPELVQWKKELRDAYREAQQLVQRVPKMKNKPRSPVVELSKVPLIQRGSANGL
[2]
  phosphorylation by GRK2 (32P incorporation): after purifying the fusion protein and testing it against GRK2, no trace whatsoever of phosphorylation was obtained
GST-Mxi2, Q16539
  phosphorylation by GRK2 (32P incorporation): With comparable amounts of p38α, Mxi2 and MxiΔ17, the last two were not phosphorylated by GRK2
GST-Mxi2Δ17, Q16539
  phosphorylation by GRK2 (32P incorporation): With comparable amounts of p38α, Mxi2 and MxiΔ17, the last two were not phosphorylated by GRK2
[3]
  Km of p38 phosphorylation by GRK2: the value of the Km=80 nM
  Michaelis-Menten constant (Km) of GST-p38 phosphorylation by GRK2: Km=79.56 nM
GST-p38T123A
  phosphorylation by GRK2 (32P incorporation): none of the two mutant is a GRK2 substrate
GST-p38T123D
  phosphorylation by GRK2 (32P incorporation): none of the two mutant is a GRK2 substrate
